{"source": "paper PMC1929070", "target": "GST-XNRL (Xenopus laevis)", "assay": "pull-down; Glutathione-Sepharose-bound GST-XNRL (or GST alone) incubated with affinity purified MYC fusion proteins in binding buffer (0.1% Triton X-100, 50 mM HEPES pH 7.5, 150 mM NaCl, 1% glycerol, 1.5 mM MgCl2, 5 mM EGTA) overnight at 4°C, washed three times; anti-MYC Western blot, bands quantified by Image J (retained/input, normalised to MYC-XOTX2); two independent experiments"}
{"substance": "MYC-XOTX5b (natural protein)", "values": [{"measurement": "fold binding relative to MYC-XOTX2 (retained/input ratio)", "value": 2.4, "unit": "fold"}]}
